Molecular target: T1, recombinant murine ACE2 (angiotensin-converting enzyme 2), extracellular domain (murine), Q8R0I0
T1 chain: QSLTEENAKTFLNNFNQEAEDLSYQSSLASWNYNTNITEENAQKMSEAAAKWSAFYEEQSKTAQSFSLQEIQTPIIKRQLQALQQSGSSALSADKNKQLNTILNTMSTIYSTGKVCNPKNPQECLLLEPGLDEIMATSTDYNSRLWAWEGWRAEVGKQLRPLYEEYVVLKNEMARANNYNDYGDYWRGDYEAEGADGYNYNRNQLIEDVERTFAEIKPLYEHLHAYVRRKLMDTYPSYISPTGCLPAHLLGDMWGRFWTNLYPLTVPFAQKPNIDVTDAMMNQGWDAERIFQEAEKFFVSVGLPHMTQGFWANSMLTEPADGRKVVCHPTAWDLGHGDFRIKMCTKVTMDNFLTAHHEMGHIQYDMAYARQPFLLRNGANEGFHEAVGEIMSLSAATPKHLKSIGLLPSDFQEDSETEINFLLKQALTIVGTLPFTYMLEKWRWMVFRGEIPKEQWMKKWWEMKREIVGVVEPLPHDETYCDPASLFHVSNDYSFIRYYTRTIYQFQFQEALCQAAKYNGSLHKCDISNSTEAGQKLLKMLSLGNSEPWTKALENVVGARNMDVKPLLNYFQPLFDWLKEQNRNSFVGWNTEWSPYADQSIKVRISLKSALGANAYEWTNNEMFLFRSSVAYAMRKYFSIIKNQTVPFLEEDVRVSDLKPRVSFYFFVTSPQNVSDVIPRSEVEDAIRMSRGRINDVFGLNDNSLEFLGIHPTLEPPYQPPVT
Test: native gel or EMSA; native PAGE, 2 ug protein on a precast native 3-12% gradient gel, Bis/Tris-Tricine buffers, 150 V for 80 min, Coomassie stain; single band at approximately 170 kDa; monomer to dimer
Details: remark: other sources report otherwise

stoichiometry N: 2
B1: recombinant murine ACE2 (angiotensin-converting enzyme 2), extracellular domain, Q8R0I0 18-740 (enzyme)
chain: T1 chain

From publication PMC3299299, “Recombinant Expression and Characterization of Human and Murine ACE2: Species-Specific Activation of the Alternative Renin-Angiotensin-System” (International Journal of Hypertension, 2012)
